For assay [1], the target named is human Claudin18.2 expressed on cells (human) (UniProt P56856). In words: flow cytometry on 293FT CLDN18.2-Luc cells, APC anti-mouse IgG Fc.
In assay [2] the target is Human Claudin-18.2 protein (human) (UniProt P56856). In words: SPR (Biacore 8K), antibody captured on Protein A, Claudin-18.2 protein as analyte. (SPR reads the build-up and loss of mass on a sensor chip optically.)

pEC50, pKd: −log10 of the molar value.

Consider IMAB-mIgG2aFc (antibody), for which the pEC50 in assay [1] is 10.15. In assay [2], this substance had a pKd of 8.25, a koff of 0.000753 s⁻¹ and a kon of 133000 M⁻¹ s⁻¹.

One may read the pEC50 as the negative decadic logarithm of the EC50, by convention in mol/L. A high value points to a low EC50. One may read the pKd as the negative decadic logarithm of the Kd, by convention in mol/L. High values mean a low Kd, low ones a high Kd. Broadly, the koff is the rate constant with which the complex falls apart. The term kon denotes the second-order rate constant of association. A high value points to fast association.

The values are drawn from patent EP4682169A1.
